Data as given in IntAct's records for PubMed 16304051.

B1: Multiple coagulation factor deficiency protein 2 (Homo sapiens), Q8NI22 (parent)
chain: MTMRSLLRTPFLCGLLWAFCAPGARAEEPAASFSQPGSMGLDKNTVHDQEHIMEHLEGVINKPEAEMSPQELQLHYFKMHDYDGNNLLDGLELSTAITHVHKEEGSEQAPLMSEDELINIIDGVLRDDDKNNDGYIDYAEFAKSLQ
partner: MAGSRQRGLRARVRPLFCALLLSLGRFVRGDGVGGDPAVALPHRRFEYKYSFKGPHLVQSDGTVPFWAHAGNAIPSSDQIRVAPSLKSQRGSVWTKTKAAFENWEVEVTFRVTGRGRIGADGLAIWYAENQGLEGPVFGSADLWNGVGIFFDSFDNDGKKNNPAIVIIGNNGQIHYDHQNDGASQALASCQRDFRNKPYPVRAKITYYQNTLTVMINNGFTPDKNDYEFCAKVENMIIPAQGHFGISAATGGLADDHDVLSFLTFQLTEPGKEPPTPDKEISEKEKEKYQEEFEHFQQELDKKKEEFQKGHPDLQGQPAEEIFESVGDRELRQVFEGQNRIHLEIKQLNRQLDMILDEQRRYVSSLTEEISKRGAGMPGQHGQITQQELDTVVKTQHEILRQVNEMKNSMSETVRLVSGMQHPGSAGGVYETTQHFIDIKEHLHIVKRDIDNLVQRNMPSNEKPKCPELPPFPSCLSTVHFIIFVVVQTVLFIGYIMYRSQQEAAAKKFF

Variants of: B1
Details: with lman1_human LMAN1, P49257

| Variant | effect of a mutation on the interaction |
| --- | --- |
| I136T | with no effect |
